Two molecules from patent US9988424 (DUKE UNIVERSITY, dated 2018) can be followed below.

Read-outs that look alike come from different tables or passages of the source. Where only a bound is given, the exact number is not on record here.

Assay [1] concerns the target T1, gp70 B.CaseA2 V1/V2/V169K (HIV-1 V1V2 on murine leukemia virus gp70).
T1 chain: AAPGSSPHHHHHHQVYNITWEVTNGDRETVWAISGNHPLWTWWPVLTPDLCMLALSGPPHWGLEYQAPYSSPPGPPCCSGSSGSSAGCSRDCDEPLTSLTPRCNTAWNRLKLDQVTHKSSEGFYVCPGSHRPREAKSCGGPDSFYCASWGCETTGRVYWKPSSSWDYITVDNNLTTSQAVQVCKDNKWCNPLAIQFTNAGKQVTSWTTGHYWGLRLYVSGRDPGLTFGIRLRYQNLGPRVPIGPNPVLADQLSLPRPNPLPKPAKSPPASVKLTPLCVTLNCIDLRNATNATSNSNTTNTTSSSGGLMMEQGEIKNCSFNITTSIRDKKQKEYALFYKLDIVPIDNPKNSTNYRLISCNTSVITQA
The assay can be described thus: ELISA.

Assay [2] has as its target T2, gp70 B.CaseA2 V1/V2/V169K/E172V/E173H (HIV-1 V1V2 on murine leukemia virus gp70).
T2 construct: also called gp70 B.CaseA2 V1/V2 Mut3
T2 chain: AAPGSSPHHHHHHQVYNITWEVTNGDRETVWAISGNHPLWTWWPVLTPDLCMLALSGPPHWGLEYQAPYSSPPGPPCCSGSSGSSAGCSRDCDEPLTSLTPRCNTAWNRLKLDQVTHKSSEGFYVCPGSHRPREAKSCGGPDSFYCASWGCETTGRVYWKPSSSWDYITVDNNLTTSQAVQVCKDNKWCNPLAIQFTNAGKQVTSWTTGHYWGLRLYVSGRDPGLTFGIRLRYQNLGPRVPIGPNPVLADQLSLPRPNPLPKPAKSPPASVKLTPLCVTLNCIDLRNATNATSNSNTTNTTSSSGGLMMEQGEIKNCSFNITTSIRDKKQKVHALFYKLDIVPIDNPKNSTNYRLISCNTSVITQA
The assay can be described thus: ELISA.

In assay [3] the target is AE.A244 V1V2 Tags (HIV-1). The experiment in a line: ELISA.
The target in assay [4] is T3, AE.A244 gp120 delta 11 (HIV-1).
T3 construct: also called E.A244gp120Δ11; AE.A244 Δ11 gp120
The assay can be described thus: ELISA.

Assay [5] concerns the target C.1086 V1V2 Tags (HIV-1). The assay can be described thus: ELISA.
Assay [6] has as its target T4, gp70 C.1086 V1/V2 (HIV-1 V1V2 on murine leukemia virus gp70).
T4 construct: also called C.gp70 1086C V1V2; C.1086gp70V1V2
T4 chain: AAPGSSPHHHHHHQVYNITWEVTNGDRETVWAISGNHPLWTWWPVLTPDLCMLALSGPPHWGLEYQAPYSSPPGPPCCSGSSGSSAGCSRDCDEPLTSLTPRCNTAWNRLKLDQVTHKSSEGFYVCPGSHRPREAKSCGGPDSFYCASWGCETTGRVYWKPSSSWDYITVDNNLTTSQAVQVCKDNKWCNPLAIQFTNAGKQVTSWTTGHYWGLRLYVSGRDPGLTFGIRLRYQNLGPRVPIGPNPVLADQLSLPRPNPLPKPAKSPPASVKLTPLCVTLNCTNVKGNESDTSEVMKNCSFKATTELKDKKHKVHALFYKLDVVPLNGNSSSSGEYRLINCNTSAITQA
The assay can be described thus: ELISA.

The target in assay [7] is AE.A244 V1V2 Tags (HIV-1). The experiment in a line: ELISA. This is another data set of the same source.
The target of assay [8] is Env of 703357.2.Q169KR170QI181L virus (HIV-1). The assay can be described thus: cell-based or functional assay.
In assay [9] the target is Env of 427299.c12.H81L virus (HIV-1). The experiment in a line: cell-based or functional assay.
Assay [10] concerns the target Env of 703357.2.Q169K virus (HIV-1). The assay can be described thus: cell-based or functional assay.
In assay [11] the target is Env of 92TH023 K169Q virus (HIV-1). The assay can be described thus: cell-based or functional assay.
The target of assay [12] is Env of TH023.6.I181L virus (HIV-1). The experiment in a line: cell-based or functional assay.
The target of assay [13] is Env of 703357.2.I181L virus (HIV-1). The experiment in a line: cell-based or functional assay.
The target of the next assay is Env of AE.92TH023 virus (HIV-1). The experiment in a line: cell-based or functional assay.
The target in a further assay is Env of AE.CM244 virus (HIV-1). The assay can be described thus: cell-based or functional assay.
A further assay addresses Env of 703357.c02 virus (HIV-1). The assay can be described thus: cell-based or functional assay.
Assay [14] concerns the target Env of 427299.c12.Q169K virus (HIV-1). The experiment in a line: cell-based or functional assay.
In assay [15] the target is Env of 703357.2.Q169KR170Q virus (HIV-1). The assay can be described thus: cell-based or functional assay.
Assay [16] addresses Env of CM244NW.6.I181L virus (HIV-1). The experiment in a line: cell-based or functional assay.
Assay [17] has as its target Env of 703357.2.Q169KI181L virus (HIV-1). The assay can be described thus: cell-based or functional assay.
Assay [18] deals with Env of CM244NW.4.K169Q virus (HIV-1). The assay can be described thus: cell-based or functional assay.
For assay [19], the target named is Env of 427299.c12.KL.Q169K/I181L virus (HIV-1). The assay can be described thus: cell-based or functional assay.
For another assay, the target named is Env of 427299.c12 virus (HIV-1). The experiment in a line: cell-based or functional assay.
For assay [20], the target named is T3, AE.A244 gp120 delta 11. The experiment in a line: ELISA. The source holds these as a separate data set.
For assay [21], the target named is C.1086 V1V2 Tags (HIV-1). The experiment in a line: ELISA. The source holds these as a separate data set.
Assay [22] concerns the target T4, gp70 C.1086 V1/V2. The assay can be described thus: ELISA.
The target of assay [23] is AE.A244 V1V2 Tags (HIV-1). The experiment in a line: ELISA. This is another data set of the same source.

B1: CH59 (antibody, V domains shown)
VH: EVQLVESGGGLVQPGRSLRLSCAASGFTFDDGAMHWVRQAPGKGLEWVSGISWNSNIIAYADSVKGRFTISRDNAKNSLYLEMNSLRVEDTALYYCAKDSPRGELPLNYWGQGTLVTVSS
VL: SYELTQPPSVSVSPGQTARITCSGDALPKNYAYWYQQKSGQAPVLVIYEDSKRPSGIPERFSGSSSGTMATLTISGAQVEDEADYYCYSTDSSGNHRVFGGGTKLTVL
notes: also called mAb CH59
With B1, the binding result in assay [1] was “no binding”. Besides, the EC50 in assay [2] was found to be 0.02 µg/mL; in the assay with AE.A244 V1V2 Tags [3] it was 0.0018 nM; with AE.A244 gp120 delta 11 [4], 0.087 nM; in the assay with C.1086 V1V2 Tags [5], 0.1 nM; with gp70 C.1086 V1/V2 [6], 0.067 nM; with AE.A244 V1V2 Tags [7] it was 0.014 nM. In addition, the EC50 is 0.087 nM with AE.A244 gp120 delta 11 [20], 0.1 nM with C.1086 V1V2 Tags [21], 0.067 nM in the assay with gp70 C.1086 V1/V2 [22] and 0.014 nM with AE.A244 V1V2 Tags [23]. Besides, the “ID50 assayed in TZM-bl cells, 703357.2.Q169KR170QI181L” value in assay [8] was > 50 µg/mL. Further, the “ID50 assayed in TZM-bl cells, 427299.c12.H81L” value in assay [9] was > 50 µg/mL. The “ID50 assayed in TZM-bl cells, 703357.2.Q169K” value in [10] was > 50 µg/mL. The “ID50 assayed in TZM-bl cells, TH023.6.K169Q” value in assay [11] is > 50 µg/mL. Besides, in assay [12], the “ID50 assayed in TZM-bl cells, TH023.6.I181L” value worked out at 5.33 µg/mL. The “ID50 assayed in TZM-bl cells, 703357.2.I181L” value in assay [13] is > 50 µg/mL. Further, the “ID50 assayed in TZM-bl cells, TH023.6” value with Env of AE.92TH023 virus stood at 1.92 µg/mL. In addition, in the assay with Env of AE.CM244 virus, the “ID50 assayed in TZM-bl cells, CM244.ec1” value was > 50 µg/mL. In addition, in the assay with Env of 703357.c02 virus, the “ID50 assayed in TZM-bl cells, 703357.c02” value is > 50 µg/mL. For the same molecule, the “ID50 assayed in TZM-bl cells, 427299.c12.Q169K” value in assay [14] is > 50 µg/mL. Also, in assay [15], the “ID50 assayed in TZM-bl cells, 703357.2.Q169KR170Q” value is > 50 µg/mL. In assay [16], the “ID50 assayed in TZM-bl cells, CM244NW.6.I181L” value is > 50 µg/mL. In addition, the “ID50 assayed in TZM-bl cells, 703357.2.Q169KI181L” value in assay [17] is > 50 µg/mL. Also, the “ID50 assayed in TZM-bl cells, CM244NW.4.K169Q” value in assay [18] was > 50 µg/mL. In addition, the “ID50 assayed in TZM-bl cells, 427299.c12.KL.Q169K/I181L” value in assay [19] is > 50 µg/mL. Besides, in the assay with Env of 427299.c12 virus, the “ID50 assayed in TZM-bl cells, 427299.c12” value is > 50 µg/mL.

B2: 697D (antibody, V domains shown)
VH: QVQLVQSGAEVKKPGSSVKVSCKASGGNFNTYTISWVRQAPGQGLEWMGRIIPIFGIVNPAQKFPGRVTINVDKSTNTAYMELSSLRSEDTAVYYCATSGVGLHFGYFDYWGQGTQVTVSS
VL: QSVLTQPPSVSGAPGQRVTISCTGSSSNIGAHYDVHWYQQLPGTAPKLLIYGNSNRPSGVPDRFSGSKSGTSASLAITGLQAEDEADYYCQSYDSSLSGYVFGTGTKVTVL
notes: also called mAb 697D; V2 conformational mAb 697D
Take B2: the EC50 in assay [1] is 0.14 µg/mL; in [2], 0.04 µg/mL; in the assay with AE.A244 V1V2 Tags [3] it was 0.6 nM; in the assay with AE.A244 gp120 delta 11 [4], 0.23 nM; with C.1086 V1V2 Tags [5], 0.23 nM; with gp70 C.1086 V1/V2 [6] it was 0.067 nM. The EC50 is 0.1 nM in the assay with AE.A244 V1V2 Tags [7]; 0.23 nM with AE.A244 gp120 delta 11 [20]; 0.23 nM with C.1086 V1V2 Tags [21]; 0.067 nM with gp70 C.1086 V1/V2 [22]; 0.1 nM with AE.A244 V1V2 Tags [23].
